Here are results for 1 substance from publication PMC2976697.

In this assay the target is Helicobacter pylori CCUG 17874 L-asparaginase (Helicobacter pylori CCUG 17874) (UniProt O25424). The assay can be described thus: non-reducing SDS-PAGE with LC-MS/MS of the band; active Superdex 75 fractions of BCF, mixed with non-reducing SDS buffer, 10-12% SDS-PAGE; band at about 121 kDa cut out, trypsin digested and identified by LC-MS/MS.

The term stoichiometry N denotes the number of molecules, sites or subunits per partner or assembly. Take “Helicobacter pylori CCUG 17874 L-asparaginase (from UniProt O25424 1-330) (enzyme)”: the stoichiometry N amounted to 4.
